From the supplement of paper PMC9233669
This sample holds only a part of the variants without activity.

Legend:
[1] = system: biotinyl-Phe-oxazolone; test: self-aminoacylation, catalytic enhancement (BFO) (fold over background); higher = more active; k-Seq, kA / k0A0; sequences stand for … in GGGAAUGGAUCCACAUCUACGAAUUC…UUCACUGCAGACUUGACGAAGCUG
Outline: (§1)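 Mutagenized RNA pools with a 21-nt variable region (0.43 μM) were reacted with each biotinyl-aminoacyl-oxazolone at 2–1250 μM for 90 minutes at room temperature, in 50 μL HEPES/NaCl/KCl/MgCl2/CaCl2 buffer containing 5% acetonitrile at pH 6.9–7.0. RNA captured on streptavidin was quantified by triplicate qPCR and by Illumina sequencing. The fraction reacted for each sequence was fit to a pseudo-first-order model with bootstrapping, and catalytic enhancement is the median kA divided by the uncatalyzed rate, taken as the low-activity peak of a bimodal Gaussian fit.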

[2] = system: biotinyl-Ile-oxazolone; test: self-aminoacylation, catalytic enhancement (BIO) (fold over background); higher = more active; k-Seq, kA / k0A0; sequences stand for … in GGGAAUGGAUCCACAUCUACGAAUUC…UUCACUGCAGACUUGACGAAGCUG
Outline: as §1

[3] = system: biotinyl-Leu-oxazolone; test: self-aminoacylation, catalytic enhancement (BLO) (fold over background); higher = more active; k-Seq, kA / k0A0; sequences stand for … in GGGAAUGGAUCCACAUCUACGAAUUC…UUCACUGCAGACUUGACGAAGCUG
Outline: as §1

[4] = system: biotinyl-Trp-oxazolone; test: self-aminoacylation, catalytic enhancement (BWO) (fold over background); higher = more active; k-Seq, kA / k0A0; sequences stand for … in GGGAAUGGAUCCACAUCUACGAAUUC…UUCACUGCAGACUUGACGAAGCUG
Outline: as §1

[5] = system: biotinyl-Val-oxazolone; test: self-aminoacylation, catalytic enhancement (BVO) (fold over background); higher = more active; k-Seq, kA / k0A0; sequences stand for … in GGGAAUGGAUCCACAUCUACGAAUUC…UUCACUGCAGACUUGACGAAGCUG
Outline: as §1

[6] = system: biotinyl-Met-oxazolone; test: self-aminoacylation, catalytic enhancement (BMO) (fold over background); higher = more active; k-Seq, kA / k0A0; sequences stand for … in GGGAAUGGAUCCACAUCUACGAAUUC…UUCACUGCAGACUUGACGAAGCUG
Outline: as §1

Sequence | self-aminoacylation [1] | self-aminoacylation [2] | self-aminoacylation [3] | self-aminoacylation [4] | self-aminoacylation [5] | self-aminoacylation [6]
AUUCACCUAGGGCAUCGGGAG [Fam2.2 aminoacylation ribozyme variant] | 0.472 | 1.07 | 1.1 | 1.08 | 1.04 | 0.855
AUUCACCUAGGGCAUGGGGUG [Fam2.2 aminoacylation ribozyme variant] | 81.4 | 5.82 | 12 | 9.2 | 5.39 | 10.1
AUUCACCUAGGGCCUCGGGUG [Fam2.2 aminoacylation ribozyme variant] | 20.3 | 2.37 | 3.89 | 3.99 | 2.66 | 3.51
AUUCACCUAGGGCUUCGGGUG [Fam2.2 aminoacylation ribozyme variant] | 15.1 | 2.69 | 2.82 | 3.63 | 2.92 | 3.39
AUUCACCUAGGUAAUCGGGCG [Fam2.2 aminoacylation ribozyme variant] | 7.69 | 1.63 | 2.62 | 2.33 | 1.65 | 1.66
AUUCACCUAGGUAAUCGUGUG [Fam2.2 aminoacylation ribozyme variant] | 3.38 | 0.879 | 1.14 | 0.758 | 0.838 | 0.915
AUUCACCUAGGUAGUCGGGUG [Fam2.2 aminoacylation ribozyme variant] | 15.8 | 2.02 | 3.89 | 3.31 | 2.35 | 3.28
AUUCACCUAGGUCAACCGGUG [Fam2.2 aminoacylation ribozyme variant] | 26.6 | 2.99 | 6.28 | 4.14 | 2.72 | 4.9
AUUCACCUAGGUCAACGGCUG [Fam2.2 aminoacylation ribozyme variant] | 0.492 | 1.12 | 1.17 | 0.872 | 1.09 | 1.07
AUUCACCUAGGUCAACGGGUG [Fam2.2 aminoacylation ribozyme variant] | 27.5 | 2.5 | 5.19 | 3.49 | 2.48 | 4.01
AUUCACCUAGGUCACCGGCUG [Fam2.2 aminoacylation ribozyme variant] | 12.9 | 2.51 | 3.16 | 2.12 | 2.36 | 2.27
AUUCACCUAGGUCACCGGGAG [Fam2.2 aminoacylation ribozyme variant] | 5.9 | 1.49 | 1.77 | 1.81 | 1.43 | 2.05
AUUCACCUAGGUCACCGGGUA [Fam2.2 aminoacylation ribozyme variant] | 14 | 2.6 | 3.2 | 3.11 | 2.46 | 2.79
AUUCACCUAGGUCACCGGGUG [Fam2.2 aminoacylation ribozyme variant] | 32.2 | 3.51 | 6.44 | 4.63 | 3.55 | 4.95
AUUCACCUAGGUCACCGGUUG [Fam2.2 aminoacylation ribozyme variant] | 7.82 | 1.92 | 1.55 | 1.29 | 1.7 | 1.62
AUUCACCUAGGUCACUGGGUG [Fam2.2 aminoacylation ribozyme variant] | 19.7 | 1.8 | 3.93 | 2.52 | 1.72 | 2.82
AUUCACCUAGGUCAGCGGGUU [Fam2.2 aminoacylation ribozyme variant] | 4.6 | 2.56 | 2.42 | 1.94 | 2.15 | 1.65
AUUCACCUAGGUCAGCUGGUG [Fam2.2 aminoacylation ribozyme variant] | 15.1 | 1.92 | 2.7 | 1.7 | 1.64 | 2.56
AUUCACCUAGGUCAGUGGGUG [Fam2.2 aminoacylation ribozyme variant] | 1.08 | 0.904 | 1.26 | 0.885 | 0.999 | 1
AUUCACCUAGGUCAUAGGGUU [Fam2.2 aminoacylation ribozyme variant] | 0.392 | 0.918 | 0.676 | 0.959 | 0.804 | 0.827
AUUCACCUAGGUCAUAUGGUG [Fam2.2 aminoacylation ribozyme variant] | 20.3 | 2.25 | 4.8 | 3.68 | 2.25 | 3.44
AUUCACCUAGGUCAUCACGUG [Fam2.2 aminoacylation ribozyme variant] | 23.1 | 2.03 | 4.54 | 3.56 | 2.62 | 3.99
AUUCACCUAGGUCAUCCGGGG [Fam2.2 aminoacylation ribozyme variant] | 7.28 | 3.2 | 4.27 | 3.23 | 2.84 | 3.21
AUUCACCUAGGUCAUCCGUUG [Fam2.2 aminoacylation ribozyme variant] | 4.37 | 1.31 | 1.16 | 0.699 | 1.19 | 0.997
AUUCACCUAGGUCAUCCUGUG [Fam2.2 aminoacylation ribozyme variant] | 1.42 | 1.13 | 1.04 | 0.316 | 0.885 | 0.923
AUUCACCUAGGUCAUCGACUG [Fam2.2 aminoacylation ribozyme variant] | 0.459 | 0.564 | 0.553 | 0.318 | 0.6 | 0.561

Sequence | self-aminoacylation [1] | self-aminoacylation [2] | self-aminoacylation [3] | self-aminoacylation [4] | self-aminoacylation [5] | self-aminoacylation [6]
AUUCACCUAGGUCAUCGAGAG [Fam2.2 aminoacylation ribozyme variant] | 1.13 | 0.915 | 1.47 | 0.394 | 0.848 | 1.07
AUUCACCUAGGUCAUCGAGUA [Fam2.2 aminoacylation ribozyme variant] | 31.7 | 7.22 | 13.1 | 3.9 | 5.92 | 9.81
AUUCACCUAGGUCAUCGCAUG [Fam2.2 aminoacylation ribozyme variant] | 0.374 | 1.05 | 1.22 | 1.06 | 1.28 | 1.04
AUUCACCUAGGUCAUCGGAUU [Fam2.2 aminoacylation ribozyme variant] | 0.438 | 0.872 | 0.837 | 1.19 | 0.864 | 0.853
AUUCACCUAGGUCAUCGGGGU [Fam2.2 aminoacylation ribozyme variant] | 40.5 | 5.09 | 12.2 | 7.01 | 5.09 | 7.67
AUUCACCUAGGUCAUCGGUUU [Fam2.2 aminoacylation ribozyme variant] | 1.09 | 1.19 | 1.28 | 0.984 | 1.41 | 1.19
AUUCACCUAGGUCAUCGUCUG [Fam2.2 aminoacylation ribozyme variant] | 0.312 | 0.663 | 0.717 | 0.376 | 0.718 | 0.67
AUUCACCUAGGUCAUCGUGUC [Fam2.2 aminoacylation ribozyme variant] | 0.307 | 0.461 | 0.498 | 0.514 | 0.474 | 0.403
AUUCACCUAGGUCAUCGUUUG [Fam2.2 aminoacylation ribozyme variant] | 0.512 | 0.592 | 0.556 | 0.31 | 0.771 | 0.542
AUUCACCUAGGUCAUCUGGGG [Fam2.2 aminoacylation ribozyme variant] | 2.49 | 1.63 | 1.9 | 1.54 | 1.5 | 1.83
AUUCACCUAGGUCAUCUGGUG [Fam2.2 aminoacylation ribozyme variant] | 16.5 | 1.93 | 3.41 | 2.62 | 1.9 | 2.71
AUUCACCUAGGUCAUGGGCUG [Fam2.2 aminoacylation ribozyme variant] | 0.402 | 1.63 | 1.66 | 1.17 | 1.33 | 1.54
AUUCACCUAGGUCAUGGGGAG [Fam2.2 aminoacylation ribozyme variant] | 0.544 | 1.03 | 0.853 | 1.56 | 0.979 | 0.889
AUUCACCUAGGUCAUUGCGUG [Fam2.2 aminoacylation ribozyme variant] | 123 | 8.82 | 21.7 | 15.8 | 7.69 | 15.7
AUUCACCUAGGUCAUUGGCUG [Fam2.2 aminoacylation ribozyme variant] | 3.54 | 1.21 | 1.33 | 0.756 | 1.4 | 1.32
AUUCACCUAGGUCAUUGGGUG [Fam2.2 aminoacylation ribozyme variant] | 20.1 | 2.31 | 4.03 | 3.18 | 2.29 | 3.26
AUUCACCUAGGUCAUUUGGUG [Fam2.2 aminoacylation ribozyme variant] | 21.2 | 2.13 | 4.82 | 3.43 | 2.03 | 3.31
AUUCACCUAGGUCCCCGGGUG [Fam2.2 aminoacylation ribozyme variant] | 58.4 | 5.12 | 9.96 | 7.84 | 4.54 | 8.22
AUUCACCUAGGUCCUCCGGUG [Fam2.2 aminoacylation ribozyme variant] | 63.3 | 6.38 | 11.5 | 9.26 | 5.33 | 10.3
AUUCACCUAGGUCCUCGGGUA [Fam2.2 aminoacylation ribozyme variant] | 1.16 | 2.44 | 1.71 | 3 | 2.39 | 2.26
AUUCACCUAGGUCCUCGGUUG [Fam2.2 aminoacylation ribozyme variant] | 4.8 | 1.13 | 1.51 | 0.815 | 1.31 | 1.39
AUUCACCUAGGUCGCCGGGUG [Fam2.2 aminoacylation ribozyme variant] | 18.5 | 3.4 | 3.8 | 3.38 | 3.25 | 3.99
AUUCACCUAGGUCGUCGGGAG [Fam2.2 aminoacylation ribozyme variant] | 0.385 | 0.982 | 1.27 | 0.943 | 1.36 | 0.924
AUUCACCUAGGUCGUCGGGCG [Fam2.2 aminoacylation ribozyme variant] | 15.2 | 3.39 | 4.5 | 2.76 | 3.2 | 2.56
AUUCACCUAGGUCGUCGGGGG [Fam2.2 aminoacylation ribozyme variant] | 8.18 | 3.11 | 3.38 | 3.53 | 2.9 | 3.07
